According to patent publication US20240150422A1:

Biological target: IL-12 receptor on HEK-Blue IL-12 cells (InvivoGen) (human) (UniProt P42701)
Assay: cell-based or functional assay

IL-12 receptor on HEK-Blue IL-12 cells (InvivoGen) (human), sequence (chain, as listed by the source limits assumed, chain 2 of 2, other chains not shown): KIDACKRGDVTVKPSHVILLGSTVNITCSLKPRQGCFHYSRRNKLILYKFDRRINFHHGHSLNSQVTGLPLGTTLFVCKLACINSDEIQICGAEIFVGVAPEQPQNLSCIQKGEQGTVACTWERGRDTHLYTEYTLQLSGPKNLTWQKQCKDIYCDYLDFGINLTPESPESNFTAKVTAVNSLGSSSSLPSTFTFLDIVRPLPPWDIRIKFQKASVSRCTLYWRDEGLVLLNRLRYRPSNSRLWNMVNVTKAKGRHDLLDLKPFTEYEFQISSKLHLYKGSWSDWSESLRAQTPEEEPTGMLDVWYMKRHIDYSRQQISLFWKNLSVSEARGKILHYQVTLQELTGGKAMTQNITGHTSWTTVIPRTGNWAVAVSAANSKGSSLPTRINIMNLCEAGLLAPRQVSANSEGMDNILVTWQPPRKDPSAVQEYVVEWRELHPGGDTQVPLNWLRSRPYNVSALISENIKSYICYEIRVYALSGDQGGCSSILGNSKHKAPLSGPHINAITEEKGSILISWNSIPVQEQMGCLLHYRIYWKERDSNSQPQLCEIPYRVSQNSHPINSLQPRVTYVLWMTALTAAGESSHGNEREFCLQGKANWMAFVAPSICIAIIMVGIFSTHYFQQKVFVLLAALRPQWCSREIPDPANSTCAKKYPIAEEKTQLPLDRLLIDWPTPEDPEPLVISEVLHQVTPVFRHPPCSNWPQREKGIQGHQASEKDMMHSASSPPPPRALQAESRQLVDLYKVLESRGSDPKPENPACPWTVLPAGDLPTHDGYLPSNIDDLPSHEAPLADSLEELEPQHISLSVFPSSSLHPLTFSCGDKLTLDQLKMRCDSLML

Substance	HEK-Blue IL-12 reporter assay, fold reduction in potency (fold (vs IL-12 Fc w.t.))	HEK-Blue IL-12 reporter assay, fold reduction in EC50 value (fold (vs wild-type))
IL-12 Fc triple mutant Y40A/D126A/P127A (format of Example 1) (from UniProt P29459 23-219; P29460 23-328) (Fc fusion)	404	
IL-12 Fc double mutant Y40A/K170A (Example 7) (from UniProt P29459 23-219; P29460 23-328) (Fc fusion)		6540
IL-12 Fc double mutant Y40A/R129A (Example 7) (from UniProt P29459 23-219; P29460 23-328) (Fc fusion)		44
IL-12 Fc quadruple mutant Y40A/T43A/D126A/P127A (format of Example 1) (from UniProt P29459 23-219; P29460 23-328) (Fc fusion)	451	

Second part, the substance after the results:

HEK-Blue IL-12 reporter assay, fold reduction in potency (fold (vs IL-12 Fc w.t.))	HEK-Blue IL-12 reporter assay, fold reduction in EC50 value (fold (vs wild-type))	Substance
38		IL-12 Fc double mutant Y40A/D126A (format of Example 1) (from UniProt P29459 23-219; P29460 23-328) (Fc fusion)
40		IL-12 Fc double mutant Y40A/P127A (format of Example 1) (from UniProt P29459 23-219; P29460 23-328) (Fc fusion)
	67	IL-12 Fc double mutant Y40A/K168A (Example 7) (from UniProt P29459 23-219; P29460 23-328) (Fc fusion)
